Literature values, collected in article PMC9406205.

Tests used:
[1] = target: GAPDH (Chlamydomonas reinhardtii) (UniProt P50362); test: surface plasmon resonance
[2] = target: PRK (Chlamydomonas reinhardtii) (UniProt P19824); test: surface plasmon resonance
Sequence of UniProt P19824 (P19824 32-375): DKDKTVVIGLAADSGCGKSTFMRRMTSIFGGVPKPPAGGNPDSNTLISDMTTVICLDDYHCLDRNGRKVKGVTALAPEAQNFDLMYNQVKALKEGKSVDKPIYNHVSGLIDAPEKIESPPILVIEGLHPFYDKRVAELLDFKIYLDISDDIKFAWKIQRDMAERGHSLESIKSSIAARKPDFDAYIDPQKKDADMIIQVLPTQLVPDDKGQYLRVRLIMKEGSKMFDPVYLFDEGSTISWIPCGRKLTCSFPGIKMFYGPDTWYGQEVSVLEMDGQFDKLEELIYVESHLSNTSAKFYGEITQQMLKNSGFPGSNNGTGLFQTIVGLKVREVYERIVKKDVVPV

CP12 (from UniProt A6Q0K5)
Kd [1]: 0.44 nM

GAPDH-CP12 subcomplex (from UniProt P50362)
Kd [2]: 60 nM
